Target: T1, epidermal growth factor receptor (EGFR) (human, UniProt P00533 25-1210)
T1 construct: Endogenous protein in A431 cell lysate; also called EGF receptor
Test: Co-AP with EGFR aptamer-magnetic agarose beads from EGF-stimulated A431 cell lysate, Western blot

binding result: binds
B1: PDK1 (enzyme, human, UniProt O15530 1-556, looked up)
chain: MARTTSQLYDAVPIQSSVVLCSCPSPSMVRTQTESSTPPGIPGGSRQGPAMDGTAAEPRPGAGSLQHAQPPPQPRKKRPEDFKFGKILGEGSFSTVVLARELATSREYAIKILEKRHIIKENKVPYVTRERDVMSRLDHPFFVKLYFTFQDDEKLYFGLSYAKNGELLKYIRKIGSFDETCTRFYTAEIVSALEYLHGKGIIHRDLKPENILLNEDMHIQITDFGTAKVLSPESKQARANSFVGTAQYVSPELLTEKSACKSSDLWALGCIIYQLVAGLPPFRAGNEYLIFQKIIKLEYDFPEKFFPKARDLVEKLLVLDATKRLGCEEMEGYGPLKAHPFFESVTWENLHQQTPPKLTAYLPAMSEDDEDCYGNYDNLLSQFGCMQVSSSSSSHSLSASDTGLPQRSGSNIEQYIHDLDSNSFELDLQFSEDEKRLLLEKQAGGNPWHQFVENNLILKMGPVDKRKGLFARRRQLLLTEGPHLYYVDPVNKVLKGEIPWSQELRPEAKNFKTFFVHTPNRTYYLMDPSGNAHKWCRKIQEVWRQRYQSHPDAAVQ
notes: also called phosphoinositide dependent kinase 1; PDPK1
